From patent US20190389958A1, “ANTI-CXCR4 ANTIBODIES” (MSM Protein Technologies, Inc., priority 2017, published 2019)

T1: hCCR3 (Homo sapiens, UniProt P51677)
T1 construct: expressed in transfected cells
T1 sequence (P51677 1-355): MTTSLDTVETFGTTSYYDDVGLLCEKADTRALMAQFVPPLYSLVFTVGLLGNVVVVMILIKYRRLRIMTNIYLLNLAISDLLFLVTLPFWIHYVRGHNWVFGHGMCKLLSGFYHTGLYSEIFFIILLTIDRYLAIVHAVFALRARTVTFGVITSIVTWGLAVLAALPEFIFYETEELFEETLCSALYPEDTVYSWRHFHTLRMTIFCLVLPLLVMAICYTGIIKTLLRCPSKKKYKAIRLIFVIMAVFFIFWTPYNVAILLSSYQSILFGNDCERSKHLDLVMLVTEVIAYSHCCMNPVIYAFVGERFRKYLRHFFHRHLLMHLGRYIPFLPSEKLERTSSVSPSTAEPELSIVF

T2: hCCR7 (Homo sapiens, UniProt P32248)
T2 construct: expressed in transfected cells
T2 sequence (P32248 25-378): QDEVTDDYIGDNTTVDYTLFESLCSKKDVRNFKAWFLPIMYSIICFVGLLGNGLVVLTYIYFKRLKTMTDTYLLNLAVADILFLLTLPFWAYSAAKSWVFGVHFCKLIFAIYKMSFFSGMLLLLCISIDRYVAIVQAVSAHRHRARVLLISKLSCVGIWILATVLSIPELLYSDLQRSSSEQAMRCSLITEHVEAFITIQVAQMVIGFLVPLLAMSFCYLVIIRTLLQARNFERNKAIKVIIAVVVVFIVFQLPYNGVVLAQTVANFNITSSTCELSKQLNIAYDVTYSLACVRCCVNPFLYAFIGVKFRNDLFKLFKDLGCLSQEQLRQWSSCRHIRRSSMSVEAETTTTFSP

B1: V62.1-R108H-m47-m38: matured anti-CXCR4 antibody; LCVR SEQ ID NO 14, HCVR SEQ ID NO 18 (antibody, V domains shown)
VH: EVQLLESGGGLVQPGGSLRLSCAASGFTFSSYAMSWVRQAPGKGLEWVSAISGSGGTRYADSVKGRFTISRDNSKNTLYLQMNSLRAEDTAVYYCARQGKTRVYGYHWHGYGSTHALDYWGQGTLVTVSS
VL: EIVLTQSPGTLSLSPGERATLSCRASQSVSSSYLAWYQQKPGQAPRLLIYGASSRATGIPDRFSGSGSGTDFTLTISRLEPEDFAVYYCQQWSSDSVTFGQGTKVEIKRT
modifications: heavy chain variable region HCVR, variant 4; light chain variable region LCVR, variant 2
B2: V62.1-R108H-m43-m38: matured anti-CXCR4 antibody; LCVR SEQ ID NO 14, HCVR SEQ ID NO 17 (antibody, V domains shown)
VH: EVQLLESGGGLVQPGGSLRLSCAASGFTFSSYAMSWVRQAPGKGLEWVSAISGSGGGSTRYADSVKGRFTISRDNSKNTLYLQMNSLRAEDTAVYYCARQGKTRVYGYHWHGYGSTHALDYWGQGTLVTVSS
VL: B1 VL
modifications: heavy chain variable region HCVR, variant 3; light chain variable region LCVR, variant 2
B3: V62.1-R108H-m80: matured anti-CXCR4 antibody; LCVR SEQ ID NO 13, HCVR SEQ ID NO 19 (antibody, V domains shown)
VH: EVQLLESGGGLVQPGGSLRLSCAASGFTISPYSITWVRQAPGKGLEWVSQINSYNGKTYYADSVKGRFTISRDNSKNTLYLQMNSLRAEDTAVYYCARQGKTRVYGYHWHGYGSTHALDYWGQGTLVTVSS
VL: EIVLTQSPGTLSLSPGERATLSCRASQSVSSSYLAWYQQKPGQAPRLLIYGASSRATGIPDRFSGSGSGTDFTLTISRLEPEDFAVYYCQQSDYSYPFTFGQGTKVEIKRT
modifications: heavy chain variable region HCVR, variant 5; light chain variable region LCVR, variant 1

Columns and labels:
RA1 cells = assay: Antibody-dependent cell-mediated cytotoxicity (ADCC), LDH release (Example 10); assay type: cell-based, human; settings: E:T ratio 20:1
Protocol: ADCC was measured with RA1 cells as the target cells (T) and using the CytoTox 96® Non-Radioactive Cytotoxicity Assay (Promega Corp., Fitchburg, Wis.)), which assay measures lactate dehydrogenase (LDH) release. A round-bottom 96-well culture plate was set up with the following control and experimental wells (100 microliter final volumes):
a. RA1 cells (for target cell spontaneous LDH release control) b. RA1 cells (for target cell maximum LDH release control) c. Culture medium (RPMI 1640 Medium (1X) without phenol red) used for volume correction control d. Culture medium (for culture medium background control) e. RA1 plus effector cells (E) (for target plus effector cell spontaneous LDH release control) f. Experimental wells with effector and target cells (10^5) with serial dilutions of each test IgG or without test IgG.
The plates were centrifuged at 1600 rpm for 2 minutes and incubated at 37° C. for 4 hours. One hour prior to supernatant harvest, 20 microliters of Lysis Solution (10×) were added to the conditions b) and c). The plates were centrifuged at 1600 rpm for 2 minutes, and 50 microliters of the supernatant from each well of the assay plates were transferred to corresponding wells of a flat-bottom 96-well enzymatic assay plate. Substrate Mix (50 microliters) was added to each well of the latter plate, and the plate (protected from light) was incubated for 30 minutes at room temperature. Finally, 50 microliters of Stop Solution were added to each well, and absorbance (OD values) was measured at 490 nm. Each condition was tested in triplicates.
Preliminary experiments had been conducted in order to determine the optimal E:T ratio. The data shown below were obtained at a 20:1 E:T ratio with 10^5 RA1 target cells. The effector cells used in this study were prepared as follows: human peripheral blood mononuclear cells (PBMCs) obtained from a healthy donor were isolated by means of density gradient centrifugation using Lymphocyte Separation Medium (ref. J15-004, Invitrogen Corp., Carlsbad, Calif.). PBMCs at 2×10^6 per mL were cultured for two days in RPMI 1640 with 10% FCS, penicillin/streptomycin and 100 units per mL of human recombinant IL-2 (obtained from Roussel-Uclaf) in a 37° C. humidified incubator (5% CO2).
ADCC percentages obtained at different concentrations of test IgGs were calculated with the formula % ADCC=(f−e)/(b−a)×100, i.e., % ADCC=(OD of Target+Effector cells +/−Test Mab −OD of Spontaneous Release of Target+Effector cells)/(OD Maximal Release Target cells −OD Spontaneous Release of Target cells)×100.

hCCR3 = target: T1, hCCR3; assay: Specificity for CXCR4, flow cytometry on GPCR over-expressing cells (Example 6); assay type: binding; settings: cell line hCCR3; test IgG at 100 nM
Protocol: (§1) Cells over-expressing different GPCRs other than CXCR4 and several lines transfected to over-express CXCR4 (R1610-hCXCR4, Cf2Th-hCXCR4 and CHO-hCXCR4) were compared. Cultures were incubated with a test IgG at 100 nM in FACS buffer for 40 min at 4° C. Thereafter, cells were washed twice, stained with anti-human-Fc antibody-PE conjugate (Jackson Immunoresearch Laboratories Inc., West Grove, Pa.), washed twice in FACS buffer and then transferred to FIX buffer. Fluorescence intensities were measured by GUAVA PCA-96 at 425V (in triplicate).
(§2) The expression of GPCRs other than CXCR4 was confirmed using commercially available antibodies (positive controls). For example, a commercial anti-CXCR1 antibody was used as a positive control for confirming the expression of CXCR1 on the CXCR1-transfected CHO cells.

hCCR7 = target: T2, hCCR7; assay: as above; assay type: binding; settings: cell line hCCR7; test IgG at 100 nM
Protocol: as §1, §2

Row | MFI (hCCR3) | MFI (hCCR7) | Molecule | ADCC percentage (RA1 cells; 0.0001 μg/mL) [%] | ADCC percentage (RA1 cells; 0.001 μg/mL) [%] | ADCC percentage (RA1 cells; 0.01 μg/mL) [%] | ADCC percentage (RA1 cells; 0.1 μg/mL) [%] | ADCC percentage (RA1 cells; 1 μg/mL) [%]
1 | 40 | – | B1 | 14 | 36 | 50 | 51 | 55
2 | – | – | B2 | 8 | 19 | 40 | 42 | 54
3 | – | 25 | B3 | 9 | 16 | 45 | 59 | 55
